Measured values from article PMC10397247.
Each block holds one binder with its values, some of them ahead of it.

What was measured:
[1] = target: T1, 4H4001-bN; experiment: two-hybrid library CCNG1;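 further: natural log of median RNA to DNA barcode read ratio; higher means stronger binding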
T1 chain: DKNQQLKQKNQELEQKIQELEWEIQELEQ

[2] = target: T2, 4H454-bN; experiment: two-hybrid library CCNG1;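 further: natural log of median RNA to DNA barcode read ratio; higher means stronger binding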
T2 chain: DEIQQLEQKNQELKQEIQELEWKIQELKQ

[3] = target: T3, 4H457-bN; experiment: two-hybrid library CCNG1;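 further: natural log of median RNA to DNA barcode read ratio; higher means stronger binding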
T3 chain: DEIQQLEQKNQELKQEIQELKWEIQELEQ

[4] = target: T4, 4H462-bN; experiment: two-hybrid library CCNG1;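 further: natural log of median RNA to DNA barcode read ratio; higher means stronger binding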
T4 chain: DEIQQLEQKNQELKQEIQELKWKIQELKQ

[5] = target: T5, 4H568-bN; experiment: two-hybrid library CCNG1
T5 chain: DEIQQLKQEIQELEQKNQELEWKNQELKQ

[6] = target: T6, 4H607-bN; experiment: two-hybrid library CCNG1
T6 chain: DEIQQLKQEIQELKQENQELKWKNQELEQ

[7] = target: T7, 4H687-bN; experiment: two-hybrid library CCNG1
T7 chain: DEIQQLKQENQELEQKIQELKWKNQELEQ

[8] = target: T8, 4H717-bN; experiment: two-hybrid library CCNG1
T8 chain: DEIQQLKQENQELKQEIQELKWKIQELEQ

[9] = target: T9, 4H72-bN; experiment: two-hybrid library CCNG1
T9 chain: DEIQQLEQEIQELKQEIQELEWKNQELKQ

[10] = target: T10, 4H754-bN; experiment: two-hybrid library CCNG1
T10 chain: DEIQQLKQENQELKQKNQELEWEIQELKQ

[11] = target: T11, 4H797-bN; experiment: two-hybrid library CCNG1
T11 chain: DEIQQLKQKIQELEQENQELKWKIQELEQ

[12] = target: T12, 4H883-bN; experiment: two-hybrid library CCNG1
T12 chain: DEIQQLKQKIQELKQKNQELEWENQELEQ

[13] = target: T13, 4H908-bN; experiment: two-hybrid library CCNG1
T13 chain: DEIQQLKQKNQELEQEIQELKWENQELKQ

[14] = target: T14, 4H918-bN; experiment: two-hybrid library CCNG1
T14 chain: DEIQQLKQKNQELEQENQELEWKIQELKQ

[15] = target: T15, 4H953-bN; experiment: two-hybrid library CCNG1
T15 chain: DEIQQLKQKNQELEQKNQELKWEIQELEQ

[16] = target: T16, 4H967-bN; experiment: two-hybrid library CCNG1
T16 chain: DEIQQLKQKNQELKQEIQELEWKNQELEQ

[17] = target: T17, P6A-bS; experiment: two-hybrid library CCNG1
T17 chain: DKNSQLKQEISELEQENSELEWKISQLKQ

[18] = target: T18, 4H496-bA; experiment: two-hybrid library CCNG1
T18 chain: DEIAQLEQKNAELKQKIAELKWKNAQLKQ

[19] = target: T19, 4H3961-bH; experiment: two-hybrid library CCNG1; settings: mean of both orientations
T19 chain: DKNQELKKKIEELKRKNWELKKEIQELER

[20] = target: T20, 4H470-bH; experiment: two-hybrid library CCNG1
T20 chain: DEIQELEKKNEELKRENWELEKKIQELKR

[21] = target: T21, 4H2705-AA; experiment: two-hybrid library CCmax
T21 chain: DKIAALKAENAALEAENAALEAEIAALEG

[22] = target: T22, 4H2736-AA; experiment: two-hybrid library CCmax; settings: mean of both orientations
T22 chain: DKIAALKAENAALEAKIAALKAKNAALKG

[23] = target: T23, 4H2758-AA; experiment: two-hybrid library CCmax; settings: mean of both orientations
T23 chain: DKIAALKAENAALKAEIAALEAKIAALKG

[24] = target: T24, 4H278-AA; experiment: two-hybrid library CCmax; settings: mean of both orientations
T24 chain: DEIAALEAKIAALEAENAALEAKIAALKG

[25] = target: T25, 4H2873-AA; experiment: two-hybrid library CCmax; settings: mean of both orientations
T25 chain: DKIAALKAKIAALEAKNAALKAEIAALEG

[26] = target: T26, 4H2888-AA; experiment: two-hybrid library CCmax; settings: mean of both orientations
T26 chain: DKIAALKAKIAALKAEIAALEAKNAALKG

[27] = target: T27, 4H2985-AA; experiment: two-hybrid library CCmax
T27 chain: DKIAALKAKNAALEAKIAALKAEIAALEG

[28] = target: T28, 4H3049-AA; experiment: two-hybrid library CCmax; settings: mean of both orientations
T28 chain: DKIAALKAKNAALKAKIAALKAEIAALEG

[29] = target: T29, 4H3134-AA; experiment: two-hybrid library CCmax; settings: mean of both orientations
T29 chain: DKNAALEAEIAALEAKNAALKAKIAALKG

[30] = target: T30, 4H337-AA; experiment: two-hybrid library CCmax; settings: mean of both orientations
T30 chain: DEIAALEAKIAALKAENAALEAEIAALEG

[31] = target: T31, 4H3409-AA; experiment: two-hybrid library CCmax; settings: mean of both orientations
T31 chain: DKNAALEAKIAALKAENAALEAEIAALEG

[32] = target: T32, 4H3587-AA; experiment: two-hybrid library CCmax; settings: mean of both orientations
T32 chain: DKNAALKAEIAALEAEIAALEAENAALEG

[33] = target: T33, 4H3590-AA; experiment: two-hybrid library CCmax; settings: mean of both orientations
T33 chain: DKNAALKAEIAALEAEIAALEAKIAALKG

[34] = target: T34, 4H3625-AA; experiment: two-hybrid library CCmax; settings: mean of both orientations
T34 chain: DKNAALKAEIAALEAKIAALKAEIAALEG

[35] = target: T35, 4H384-AA; experiment: two-hybrid library CCmax; settings: mean of both orientations
T35 chain: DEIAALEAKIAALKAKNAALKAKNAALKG

[36] = target: T36, 4H390-AA; experiment: two-hybrid library CCmax; settings: mean of both orientations
T36 chain: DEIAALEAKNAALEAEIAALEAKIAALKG

[37] = target: T37, 4H3905-AA; experiment: two-hybrid library CCmax; settings: mean of both orientations
T37 chain: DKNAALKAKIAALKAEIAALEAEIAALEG

[38] = target: T38, 4H3940-AA; experiment: two-hybrid library CCmax; settings: mean of both orientations
T38 chain: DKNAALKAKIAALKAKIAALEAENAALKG

[39] = target: T39, 4H4038-AA; experiment: two-hybrid library CCmax; settings: mean of both orientations
T39 chain: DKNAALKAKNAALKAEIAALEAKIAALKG

[40] = target: T40, 4H43-AA; experiment: two-hybrid library CCmax; settings: mean of both orientations
T40 chain: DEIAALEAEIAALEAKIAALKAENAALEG

[41] = target: T41, 4H451-AA; experiment: two-hybrid library CCmax; settings: mean of both orientations
T41 chain: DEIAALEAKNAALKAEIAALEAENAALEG

[42] = target: T42, 4H510-AA; experiment: two-hybrid library CCmax; settings: mean of both orientations
T42 chain: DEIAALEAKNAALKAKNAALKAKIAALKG

[43] = target: T43, 4H775-AA; experiment: two-hybrid library CCmax; settings: mean of both orientations
T43 chain: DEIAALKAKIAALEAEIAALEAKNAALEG

[44] = target: T44, 4H816-AA; experiment: two-hybrid library CCmax; settings: mean of both orientations
T44 chain: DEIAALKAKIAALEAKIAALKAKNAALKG

[45] = target: T45, 4H87-AA; experiment: two-hybrid library CCmax; settings: mean of both orientations
T45 chain: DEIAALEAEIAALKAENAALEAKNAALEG

[46] = target: T46, 4H_APH; experiment: two-hybrid library CCmax; settings: mean of both orientations
T46 chain: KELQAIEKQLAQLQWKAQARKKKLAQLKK

[47] = target: T47, 4H_BCR; experiment: two-hybrid library CCmax; settings: mean of both orientations
T47 chain: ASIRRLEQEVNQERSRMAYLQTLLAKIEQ

[48] = target: 4H_GCN4; experiment: two-hybrid library CCmax; settings: mean of both orientations
Sequence of 4H_GCN4 (chain, as listed by the source): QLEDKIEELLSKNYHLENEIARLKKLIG

[49] = target: GCN2_T; experiment: two-hybrid library CCmax; settings: mean of both orientations
[50] = target: T48, O11-AA; experiment: two-hybrid library CCmax; settings: mean of both orientations
T48 chain: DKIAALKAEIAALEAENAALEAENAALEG

[51] = target: T49, O13-AA; experiment: two-hybrid library CCmax; settings: mean of both orientations
T49 chain: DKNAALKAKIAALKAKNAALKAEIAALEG

[52] = target: T50, O14-AA; experiment: two-hybrid library CCmax; settings: mean of both orientations
T50 chain: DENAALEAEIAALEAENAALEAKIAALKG

interaction score [1]: -0.804
interaction score [2]: 0.0134
interaction score [3]: -0.688
interaction score [4]: -0.667
interaction score [5]: -2.33
interaction score [6]: -1.46
interaction score [7]: -1.77
interaction score [8]: -1.63
interaction score [9]: -1.03
interaction score [10]: -1.75
interaction score [11]: -1.1
interaction score [12]: -0.641
interaction score [13]: -1.27
interaction score [14]: -0.935
interaction score [15]: -1.5
interaction score [16]: -2.32
interaction score [17]: -2.58
Binder: DKNQQLKQKNQELEQKIQELEWEIQELEQ [4H4001-bN]

interaction score [18]: -0.521
Binder: DEIAQLEQKNAELKQKIAELKWKNAQLKQ [4H496-bA]

interaction score [19]: -1.2
interaction score [20]: 1.3
Binder: DKNQELKKKIEELKRKNWELKKEIQELER [4H3961-bH]

interaction score [21]: -1.4
interaction score [22]: -1.45
interaction score [23]: -1.01
interaction score [24]: -0.473
interaction score [25]: -1.27
interaction score [26]: -1.97
interaction score [27]: -0.31
interaction score [28]: 1.67
interaction score [29]: -0.0637
interaction score [30]: -0.896
interaction score [31]: -1.62
interaction score [32]: -1.78
interaction score [33]: -1.6
interaction score [34]: -2.01
interaction score [35]: 1.45
interaction score [36]: -0.544
interaction score [37]: -1.49
interaction score [38]: -1.62
interaction score [39]: 0.153
interaction score [40]: -1.82
interaction score [41]: -1.84
interaction score [42]: 1.88
interaction score [43]: -1.89
interaction score [44]: -1.52
interaction score [45]: -1.62
interaction score [46]: -1.6
interaction score [47]: -1.75
interaction score [48]: -1.71
interaction score [49]: -1.4
interaction score [50]: -1.81
interaction score [51]: -1.17
interaction score [52]: -1.68
Binder: DKIAALKAENAALEAENAALEAEIAALEG [4H2705-AA]
